Laboratory results from paper doi:10.1101/2025.10.16.681758 (bioRxiv, 2025).

B1: aCcr1 (natural protein, Saccharolobus islandicus REY15A, UniProt F0NBE5 1-58, looked up)
chain: MRVVTFKVEEDLLELLDRYAIKYGLNRSEAIRKAIEKMVRDELSKERVPVARVEKIKL
B2: SiRe_0131 (natural protein, Saccharolobus islandicus REY15A, UniProt F0NG80 1-74, looked up)
chain: MEKIVKVNDTTYILEDERSVVITFKLEENILSMVDEIVKKLGYDYRSDFIRDAIEKYINYLKSSSNNSKMNINE
B3: aCcr2 (natural protein, Saccharolobus islandicus REY15A, UniProt F0NEU4 1-57, looked up)
chain: MVRVITFKAEEELLVKLDLFALNSRMSRSEIIRMAIEKYLEEAAGGIRTRDRRLSRQ

Legend:
[1] = system: aCcr3 (Saccharolobus islandicus REY15A); assay: EMSA
[2] = system: aCcr2 (Saccharolobus islandicus REY15A); assay: EMSA
[3] = system: aCcr1 (Saccharolobus islandicus REY15A); assay: EMSA
SEC = target: the molecule itself; assay: SEC

Row | Molecule | stoichiometry N (SEC) | further results
1 | PcdvA | – | Kd [1]: 36 nM; Kd [2]: 245 nM; Kd [3]: 93.5 nM
2 | B1 | 2 | –
3 | MKIITVKLPEQFLEAIDELVNTGRYGSRSEVIRAAIGDFIRKELWVTTEE (natural protein, Saccharolobus islandicus REY15A, UniProt F0NFD7 1-50, looked up) [aCcr3] | 2 | –
4 | MRKVVSVRLKEDVLRDVDIYTRKLGLNSRTEFIKQAIEFYIKSKS (natural protein, Saccharolobus islandicus REY15A, UniProt F0NI75 1-45, looked up) [SiRe_1373] | 2 | –
5 | B2 | 2 | –
6 | B3 | 2 | –
